± gives the standard deviation of the averaged measurements.
B1: library; a variant is named by its letters at X, in order (parent)
chain: MNIQIGELAKRTACPVVTIRFYEQEGLLPPPGRSRGNFRLYGEEHVERLQFIRHCRSLDMPLSXVRTLLSYRKRPDQDCGEVXMLLDEHXRQVESRIGALLELXHXLVELREACSGARPAQSCGILQGLSDCVCDTRGTTAHXSD

Assays:
[1] = variants of: B1; assay: sfGFP reporter fluorescence (15 h) (µM FITC); higher = higher leak; conditions: library round: Round 3b; ligand: none
Method: (§1)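 Cell-free biosensing: 1 µL Echo-assembled CFE reactions with linear PbrR variant templates (5 nM) and pPbrR-sfGFP reporter, with 1 µM Pb, 30 µM Zn or no ligand; endpoint sfGFP fluorescence after 15 h at 30 °C calibrated as µM FITC. Round 3b rational combinatorial PbrR mutants; 3 biological replicates.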

[2] = variants of: B1; assay: sfGFP reporter fluorescence (15 h) (µM FITC); higher = stronger transcriptional activation; conditions: library round: Round 3b
Method: as §1

Row | Variant | sfGFP reporter fluorescence [1] | sfGFP reporter fluorescence ([2]; ligand: 1 µM Pb) | sfGFP reporter fluorescence ([2]; ligand: 30 µM Zn)
1 | MNIQIGELAKRTACPVVTIRFYEQEGLLPPPGRSRGNFRLYGEEHVERLQFIRHCRSLDMPLSKVRTLLSYRKRPDQDCGEVNMLLDEHARQVESRIGALLELKHELVELREACSGARPAQSCGILQGLSDCVCDTRGTTAHRSD [KNAKER] | 0.0626 ± 0.0049 | 0.296 ± 0.036 | 0.621 ± 0.066
2 | MNIQIGELAKRTACPVVTIRFYEQEGLLPPPGRSRGNFRLYGEEHVERLQFIRHCRSLDMPLSKVRTLLSYRKRPDQDCGEVFMLLDEHARQVESRIGALLELKHELVELREACSGARPAQSCGILQGLSDCVCDTRGTTAHPSD [KFAKEP] | 0.0525 ± 0.0023 | 0.414 ± 0.015 | 0.0724 ± 0.0068
3 | MNIQIGELAKRTACPVVTIRFYEQEGLLPPPGRSRGNFRLYGEEHVERLQFIRHCRSLDMPLSDVRTLLSYRKRPDQDCGEVIMLLDEHIRQVESRIGALLELTHELVELREACSGARPAQSCGILQGLSDCVCDTRGTTAHTSD [DIITET] | 0.0436 ± 0.0034 | 0.0535 ± 0.002 | 0.047 ± 0.0035
4 | MNIQIGELAKRTACPVVTIRFYEQEGLLPPPGRSRGNFRLYGEEHVERLQFIRHCRSLDMPLSKVRTLLSYRKRPDQDCGEVNMLLDEHARQVESRIGALLELVHELVELREACSGARPAQSCGILQGLSDCVCDTRGTTAHTSD [KNAVET] | 0.0522 ± 0.0014 | 0.261 ± 0.01 | 0.223 ± 0.016
5 | MNIQIGELAKRTACPVVTIRFYEQEGLLPPPGRSRGNFRLYGEEHVERLQFIRHCRSLDMPLSDVRTLLSYRKRPDQDCGEVIMLLDEHARQVESRIGALLELTHALVELREACSGARPAQSCGILQGLSDCVCDTRGTTAHRSD [DIATAR] | 0.0427 ± 0.0029 | 0.0781 ± 0.014 | 0.0423 ± 0.0034
6 | MNIQIGELAKRTACPVVTIRFYEQEGLLPPPGRSRGNFRLYGEEHVERLQFIRHCRSLDMPLSDVRTLLSYRKRPDQDCGEVIMLLDEHARQVESRIGALLELVHELVELREACSGARPAQSCGILQGLSDCVCDTRGTTAHTSD [DIAVET] | 0.0432 ± 0.0019 | 0.07 ± 0.0044 | 0.0437 ± 0.002
7 | MNIQIGELAKRTACPVVTIRFYEQEGLLPPPGRSRGNFRLYGEEHVERLQFIRHCRSLDMPLSDVRTLLSYRKRPDQDCGEVIMLLDEHARQVESRIGALLELVHHLVELREACSGARPAQSCGILQGLSDCVCDTRGTTAHRSD [DIAVHR] | 0.0454 ± 0.0066 | 0.104 ± 0.0012 | 0.0493 ± 0.0043
